# Laboratory results taken from US8129349B2, “Treatment of disease by inducing cell apoptosis” (The Regents of the University of California, priority 2000, dated 2012).
# T1: procaspase 1 (Homo sapiens, UniProt P29466)
# T1 construct: purchased Alexis Biochemicals 201-056
# T1 sequence (P29466 1-404): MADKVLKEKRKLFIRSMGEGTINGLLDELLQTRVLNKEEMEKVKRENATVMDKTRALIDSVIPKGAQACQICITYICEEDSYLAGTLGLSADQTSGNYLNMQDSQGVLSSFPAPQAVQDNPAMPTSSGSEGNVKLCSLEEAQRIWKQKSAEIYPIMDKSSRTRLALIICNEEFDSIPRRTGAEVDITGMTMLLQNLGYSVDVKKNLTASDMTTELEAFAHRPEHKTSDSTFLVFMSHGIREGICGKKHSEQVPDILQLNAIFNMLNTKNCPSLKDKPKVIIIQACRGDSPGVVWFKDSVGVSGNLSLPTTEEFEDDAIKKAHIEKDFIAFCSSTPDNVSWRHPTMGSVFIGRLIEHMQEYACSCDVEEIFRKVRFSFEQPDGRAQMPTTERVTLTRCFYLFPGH
# Legend:
# procaspase 1 = target: T1, procaspase 1; experiment: Co-immunoprecipitation of purified recombinant procaspase 1 with recombinant C/EBPβ peptides; assay type: binding; conditions: peptides 200 μM, procaspase 1 0.6 U, quantitated by densitometry
# Protocol: (§1) FIG. 5 provides results showing the direct association of C/EBPβ-Glu^217 with procaspases 1 and 8. […] Enzyme activity was measured in the absence (control) or presence of C/EBPβ peptides (200 μM) for 2 h, using a procaspases 1 (1U) (not shown) and 8 (0.2 μg) activity assay. Values are presented as the mean±one half the range of duplicates. Panel C provides results for cells cultured on a collagen type I matrix and incubated with the indicated cell permeant, purified synthetic N-acetyl, C-aldehyde C/EBPβ tetra-peptides (10 μM) or with recombinant C/EBPβ-HA peptides as indicated, together with the Chariot reagent (Active Motif) for 4 h. Control cells were incubated without peptides (P<0.05 for all peptides containing Ala^217).
# (§2) Purified recombinant C/EBPβ peptides, expressed as known in the art (See, Descombes et al., supra; and Buck et al. (1994), supra), and purified synthetic N-acetyl, C-aldehyde tetrapeptides (200 μM) (American Peptide Company) were assayed for their ability to inhibit the activity of purified human recombinant caspases 1 (catalogue # 201-056) and 8 (catalogue # 201-041-C005) (Alexis Biochemicals). The sequence of caspase 8 includes Ser217 through Asp479 cloned into an expression vector containing a 21 amino acid linker at the N-terminus. Thus, the prodomain (first 220 amino acids) is essentially missing. The fragment is cleaved at Asp385 and the active caspases are essentially identical to those identified in apoptotic cells (Stennicke and Salvesen, Meth. Enzymol., 322:91-100 (1997)). Caspase activity was determined by the release of the p-nitroaniline colorimetric (Alexis Biochemicals) substrate for caspase 1 (catalogue # 260-026) or 8 (catalogue # 260-045) within the linear part of the kinetic assay (Thornberry et al. (1997), supra; Stennicke and Salvesen, supra). Caspase 1 and 8 activity in cells was performed with colorimetric kits (catalogues # 850-211-K and 850-221-K) as described by the manufacturer (Alexis) (See also, Thornberry et al. (1997), supra). The caspase 8 inhibitor IETD was from Calbiochem (Catalogue # 218773).
# To delineate the role of C/EBPβ on the activation of procaspases 1 and 8, the self-activation of recombinant procaspases 1 and 8 was induced in vitro (Wilson et al., supra; Margolin et al., supra; and Earnshaw et al., supra), and the effect of purified recombinant C/EBPβ peptides, produced as described previously (Descombes et al., supra; and Buck et al., (1994), supra) on this process was determined. Consistent with the in vivo results described above, C/EBPβ-HA-Glu^217 and C/EBPβ 216-253-HA-Glu^217, but not C/EBPβ-HA-Ala^217, peptides associated with procaspases 1 and 8 (See, FIG. 5, Panel A). […]
# procaspase 8 = procaspase 8 (Homo sapiens, UniProt Q14790); experiment: Co-immunoprecipitation of purified recombinant procaspase 8 with recombinant C/EBPβ peptides; assay type: binding; set-up: 21 amino acid linker (vector-derived) (N); purchased Alexis Biochemicals 201-041-C005; conditions: peptides 200 μM, procaspase 8 0.12 μg, quantitated by densitometry
# Protocol: as §1
# as §2, with “The fragment is cleaved at Asp385 and the active caspases are essentially identical to those identified in apoptotic cells (Stennicke and Salvesen, Meth. Enzymol., 322:91-100 (1997)).” left out, “Caspase 1 and 8 activity in cells was performed with colorimetric kits (catalogues # 850-211-K and 850-221-K) as described by the manufacturer (Alexis) (See also, Thornberry et al. (1997), supra). The caspase 8 inhibitor IETD was from Calbiochem (Catalogue # 218773).” left out
# To delineate the role of C/EBPβ on the activation of procaspases 1 and 8, the self-activation of recombinant procaspases 1 and 8 was induced in vitro (Wilson et al., supra; Margolin et al., supra; and Earnshaw et al., supra), and the effect of purified recombinant C/EBPβ peptides, produced as described previously (Descombes et al., supra; and Buck et al., (1994), supra) on this process was determined. […]
# [1] = system: C/EBPβ-Ala^217 stellate cells; experiment: Apoptosis of stellate cells from C/EBPβ-Ala^217 transgenic mice, Hoechst 33342 nuclear staining; assay type: cell-based, mouse; conditions: collagen type I; IETD or transfection 1 μg
# Protocol: FIG. 2 provides results showing increased apoptosis in hepatic stellate cells from C/EBPβ^−/− and C/EBPβ-Ala^217 transgenic mice. […] Six hours after cultivation, an annexin-V-PE binding assay was performed (P<0.05 for C/EBPβ^−/− and C/EBPβ-Ala^217). […] Apoptotic cells are indicated with arrowheads.
# Fluorescent labels were observed using a triple-channel fluorescence microscope. The fluorochromes utilized were FITC and Texas red (Molecular Probes). The number of annexin V (+) cells was determined by in vivo microscopy as known in the art (See, Rudel and Bokoch, supra) among all cells or those expressing the GFP indicator protein either co-transfected with C/EBPβ proteins, or alone. These values are reported herein as a percentage of annexin V (+) for cells expressing the transfected DNA. At least 1000 cells were analyzed per experimental point, including at least 100 cells expressing the transfected DNA (Buck and Chojkier, EMBO J., 15:1753-1765 (1996); Buck et al., (1994), supra; and Buck et al., (1999), supra). […] Nuclear morphology was analyzed by staining cells with Hoechst 33342 (Molecular Probes). […]
# Sequence of procaspase 8 (Q14790 217-479): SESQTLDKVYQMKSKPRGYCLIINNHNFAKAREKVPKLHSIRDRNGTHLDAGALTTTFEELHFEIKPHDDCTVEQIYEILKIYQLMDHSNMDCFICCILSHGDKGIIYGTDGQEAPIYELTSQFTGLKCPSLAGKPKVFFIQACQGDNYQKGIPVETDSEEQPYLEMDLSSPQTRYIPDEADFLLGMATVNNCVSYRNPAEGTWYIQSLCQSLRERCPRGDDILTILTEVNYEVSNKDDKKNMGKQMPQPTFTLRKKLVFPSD
molecule,measurement,setting,value
"C/EBPβ-Glu^217: modified murine C/EBPβ with mutation of Thr^217 to glutamic acid (SEQ ID NO:4), phosphorylation mimic (protein, listed as Mus musculus) MHRLLAWDAACLPPPPAAFRPMEVANFYYEPDCLAYGAKAARAAPRAPAAEPAIGEHERAIDFSPYLEPLAPAADFAAPAPAHHDFLSDLFADDYGAKPSKKPADYGYVSLGRAGAKAAPPACFPPPPPAALKAEPGFEPADCKRADDAPAMAAGFPFALRAYLGYQATPSGSSGSLSTSSSSSPPGTPSPADAKAAPAACFAGPPAAPAKAKAKKZVDKLSDEYKMRRERNNIAVRKSRDKAKMRNLETQHKVLELTAENERLQKKVEQLSRELSTLRNLFKQLPEPLLASAGHC","Co-immunoprecipitation of procaspase 1, fold more than the Ala^217 peptides",procaspase 1,7 fold
same,"Co-immunoprecipitation of procaspase 8, fold more than the Ala^217 peptides",procaspase 8,12 fold
same,Block of apoptosis of C/EBPβ-Ala^217 stellate cells,[1],blocked
